From paper PMC3333870

Molecular target: T1, rLin28 (Lin28) (UniProt Q9H9Z2 1-209)
T1 sequence: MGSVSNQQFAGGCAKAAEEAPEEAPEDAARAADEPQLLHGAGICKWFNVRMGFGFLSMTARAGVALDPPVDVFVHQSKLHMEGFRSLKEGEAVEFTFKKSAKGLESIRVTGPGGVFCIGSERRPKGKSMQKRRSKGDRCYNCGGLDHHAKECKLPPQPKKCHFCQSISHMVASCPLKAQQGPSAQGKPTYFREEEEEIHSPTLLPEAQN
Assay: EMSA

B1: pre-let-7a-1 (structured_RNA)
RNA: GGGCUGAGGUAGUAGGUUGUAUAGUUUUAGGGUCACACCCACCACUGGGAGAUAACUAUACAAUCUACUGUCUUUCC
B1 was tested, and the Kd was 1990 nM.
